Data as given in article PMC12719649.

Tests used:
[1] = target: MED14-NTD+H+M+MED26, 16-subunit recombinant human core Mediator with f:MED14-NTD (1-760) (human) (UniProt O60244)
[2] = target: MED14-NTD+H+M+MED26, 16-subunit recombinant human core Mediator with f:MED14-NTD (1-760) (human) (UniProt O60244); assay: co-IP; competition: MED14-NTD+H+M+MED26 on anti-MED30 beads with Pol II and recombinant RPB1 as competitor, equal amounts of His:RPB1 or up to 10-fold more f:RPB1 or f:ΔCTD RPB1 than Pol II; western blot

basal in vitro transcription from AdML core promoter templates in Mediator-depleted HeLa NE, 50 nM complex, against Mediator-deficient controls [1] [fold]	percent reversal of the MED14-NTD+H+M+MED26-Pol II interaction at a 1:1 ratio [2] [%]	Substance
> 15		RNA polymerase II (Pol II), Gdown1-free, purified from HeLa nuclear extract (from UniProt P24928 1-1970; P30876 1-1174; P19387 1-275; O15514 1-142; P19388 1-210; P61218 1-127; P62487 1-172; P52434 1-150; P36954 1-125; P62875 1-67; P52435 1-117; P53803 1-58) (complex)
	< 50	recombinant His:RPB1 (from UniProt P24928 1-1970) (natural protein)
